Test results from patent publication US20240011005A1 (HUIDAGENE THERAPEUTICS, published 2024).
Changes are numbered by the printed parent chain.

Assays:
Assay in all cases: cell_activity
[1] = system: T1, OsCas12f1-S141R S141R (Oscillibacter sp.); conditions: PAM TTTC
T1 sequence: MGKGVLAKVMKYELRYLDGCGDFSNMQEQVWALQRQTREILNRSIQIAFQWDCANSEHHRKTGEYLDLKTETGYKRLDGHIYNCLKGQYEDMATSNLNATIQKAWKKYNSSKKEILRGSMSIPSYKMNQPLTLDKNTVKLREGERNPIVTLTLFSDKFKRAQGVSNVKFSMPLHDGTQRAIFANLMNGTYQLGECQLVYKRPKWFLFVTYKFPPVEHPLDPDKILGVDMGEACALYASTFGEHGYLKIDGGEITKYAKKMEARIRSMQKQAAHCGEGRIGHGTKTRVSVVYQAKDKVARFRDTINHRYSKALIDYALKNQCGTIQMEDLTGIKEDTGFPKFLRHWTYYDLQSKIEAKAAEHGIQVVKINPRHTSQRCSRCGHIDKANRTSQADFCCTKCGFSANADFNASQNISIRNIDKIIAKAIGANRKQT

[2] = system: T2, OsCas12f1-D52R (Oscillibacter sp.); conditions: PAM TTTC; 1.31-fold in text
T2 sequence: T1 sequence with D52R, R141S

[3] = system: T3, OsCas12f1-A54R A54R (Oscillibacter sp.); conditions: PAM TTTC
T3 sequence: T1 sequence with A54R, R141S

[4] = system: T4, OsCas12f1 (ME-B.3) (Oscillibacter sp.); conditions: PAM TTTC, HEK293T
T4 sequence: T1 sequence with R141S

[5] = system: T5, OsCas12f1-S119R S119R (Oscillibacter sp.); conditions: PAM TTTC
T5 sequence: T1 sequence with S119R, R141S

[6] = system: T6, OsCas12f1-T132R T132R (Oscillibacter sp.); conditions: PAM TTTC
T6 sequence: T1 sequence with T132R, R141S

Sequence “AGGGACGACUUCCCGUCCCAAAAUCGAGACAGUAGCCGUAAAACUUUGAGUUUCAGAGUGGGCGACACACUCGAAAAGGUUAAGAUAUGCACAUAGUAAUCCGUGCAUGAGCCGCGAAAGCGGCUUGAAGGCCAUUACAGUAGGAGCAUACUUUUAUUUUUUU / TTTCCCATTACAGTAGGAGCATACGGG / CCCGTATGCTCCTACTGTAATGGGAAA” has an activity [1] of 46.6 % GFP+, an activity [2] of 52.8 % GFP+ and an activity [3] of 45.5 % GFP+. The activity [4] was 38.7 % GFP+, the activity [5] was 46.3 % GFP+ and the activity [6] was 48.4 % GFP+.
